The target in the test is JUNV L protein VNN(1177–1179)AAA (Junin virus (JUNV)). The test can be described thus: MST.

B1: Junin virus (JUNV) Z protein (natural protein)
chain: MGNCNGASKSNQPDSSRVTQPAAEFRRVAHSSLYGRYNCKCCWFADTNLITCNDHYLCLRCHQVMLRNSDLCNICWKPLPTTITVPVEPTAPPP
By Kd is commonly meant the equilibrium constant for the complex coming apart. Read a high Kd as weaker binding. B1: the Kd came out at 914 nM.

Source of the values: article PMC8257661.
